{
  "source": "patent US20210316003A1",
  "about": "(Immunomedics, Inc., priority 2020, published 2021)",
  "system": "patients with metastatic urothelial cancer (mUC)",
  "experimental": "Endpoints included safety, investigator-evaluated objective response rate (ORR per RECIST 1.1), clinical benefit rate, duration of response (DOR), progression-free survival (PFS), and overall survival (OS). Sequencing analysis of differentially mutated and expressed genes and pathways was performed in subsets of tumors from responders and non-responders.\nHematopoietic growth factors or blood transfusions were allowed at the investigator's discretion, but not prior to the first dose. Other supportive care (antiemetics, anti-diarrheal medications, or bone-stabilizing agents) were allowed as medically needed.\nAdditional secondary objectives included assessment of pharmacokinetics and immunogenicity, which were previously reported by Ocean and colleagues (Ocean et al., 2017, Cancer 123:3843-54). Safety evaluations included adverse events (AEs), serious adverse events (SAEs), laboratory safety evaluations, vital signs, physical examinations, and 12-lead electrocardiograms (ECG; performed at baseline, after completion of the infusion on day 1 of every even-numbered treatment cycle, at the end of treatment, and at the end of the study). AEs were graded according to the National Cancer Institute Common Terminology Criteria for Adverse Events, version 4.0.\nThe data cut-off date for this analysis was Sep. 1, 2018. ORR and CBR were calculated with 95% confidence intervals estimated by the Clopper-Pearson method (Clopper & Pearson, 1934, Biometrika 26:404-13). PFS, OS, and time-to-event endpoints were analyzed by the Kaplan-Meier method, with medians and corresponding 95% confidence intervals determined by the Brookmeyer and Crowley method with log-log transformation. Descriptive statistics were used to characterize AEs. Fischer's exact test was applied to a matrix of pathway-associated gene counts of mutated and wild type phenotypes between responders and non-responders to identify pathways enriched in either of the two response groups. P-values for single sample GSEA (ssGSEA) enrichment score differences between the responder and non-responder patient groups were obtained from the Mann-Whitney statistical test.",
  "key": {"[1]": {"details": "mUC, N = 45, regardless of causality"}, "[2]": {"details": "mUC, N = 45, listed as Sacituzumab Govitecan"}},
  "note": "Like-named read-outs stand apart in the source and are kept apart here.",
  "data": [
    {"substance": "sacituzumab govitecan", "values": [
      {"measurement": "Maximum tolerated dose", "setting": "days 1 and 8 every 21 days, intravenous", "value": 10, "unit": "mg/kg"},
      {"measurement": "Patients with dose reductions", "setting": "mUC, 18 of 45", "value": 40, "unit": "%"},
      {"measurement": "AEs leading to death or treatment-related deaths", "setting": "mUC, N = 45", "value": "no treatment-related deaths were reported"},
      {"measurement": "Anemia, grade ≥3", "setting": "mUC, N = 45", "value": 13, "unit": "%"},
      {"measurement": "Diarrhea, grade ≥3", "setting": "mUC, N = 45", "value": 9, "unit": "%"},
      {"measurement": "Discontinued for treatment-related AE, %", "setting": "mUC, N = 45", "value": "(11.1) %"},
      {"measurement": "Fatigue, grade ≥3", "setting": "mUC, N = 45", "value": 9, "unit": "%"},
      {"measurement": "Febrile neutropenia, grade ≥3", "setting": "mUC, N = 45", "value": 7, "unit": "%"},
      {"measurement": "Hypophosphatemia, grade ≥3", "setting": "mUC, N = 45", "value": 11, "unit": "%"},
      {"measurement": "Neutropenia, grade ≥3", "setting": "mUC, N = 45", "value": 38, "unit": "%"},
      {"measurement": "Peripheral neuropathy or cardiovascular AEs of grade 3 or higher", "setting": "mUC, N = 45", "value": "no cases"},
      {"measurement": "Alopecia, Any Grade, % of patients", "setting": "[1]", "value": "(40.0) %"},
      {"measurement": "Alopecia, Any Grade, No. of patients", "setting": "[1]", "value": 18},
      {"measurement": "Alopecia, Grade 3, No. of patients", "setting": "[1]", "value": 0},
      {"measurement": "Alopecia, Grade 4, No. of patients", "setting": "[1]", "value": 0},
      {"measurement": "Anemia, Any Grade, % of patients", "setting": "[1]", "value": "(33.3) %"},
      {"measurement": "Anemia, Any Grade, No. of patients", "setting": "[1]", "value": 15},
      {"measurement": "Anemia, Grade 3, % of patients", "setting": "[1]", "value": "(13.3) %"},
      {"measurement": "Anemia, Grade 3, No. of patients", "setting": "[1]", "value": 6},
      {"measurement": "Anemia, Grade 4, No. of patients", "setting": "[1]", "value": 0},
      {"measurement": "Any adverse event, Any Grade, % of patients", "setting": "[1]", "value": "(100) %"},
      {"measurement": "Any adverse event, Any Grade, No. of patients", "setting": "[1]", "value": 45},
      {"measurement": "Any adverse event, Grade 3, % of patients", "setting": "[1]", "value": "(55.6) %"},
      {"measurement": "Any adverse event, Grade 3, No. of patients", "setting": "[1]", "value": 25},
      {"measurement": "Any adverse event, Grade 4, % of patients", "setting": "[1]", "value": 17.8, "unit": "%"},
      {"measurement": "Any adverse event, Grade 4, No. of patients", "setting": "[1]", "value": 8},
      {"measurement": "Back pain, Any Grade, % of patients", "setting": "[1]", "value": "(22.2) %"},
      {"measurement": "Back pain, Any Grade, No. of patients", "setting": "[1]", "value": 10},
      {"measurement": "Back pain, Grade 3, No. of patients", "setting": "[1]", "value": 0},
      {"measurement": "Back pain, Grade 4, No. of patients", "setting": "[1]", "value": 0},
      {"measurement": "Constipation, Any Grade, % of patients", "setting": "[1]", "value": "(44.4) %"},
      {"measurement": "Constipation, Any Grade, No. of patients", "setting": "[1]", "value": 20},
      {"measurement": "Constipation, Grade 3, No. of patients", "setting": "[1]", "value": 0},
      {"measurement": "Constipation, Grade 4, No. of patients", "setting": "[1]", "value": 0},
      {"measurement": "Cough, Any Grade, % of patients", "setting": "[1]", "value": "(31.1) %"},
      {"measurement": "Cough, Any Grade, No. of patients", "setting": "[1]", "value": 14},
      {"measurement": "Cough, Grade 3, No. of patients", "setting": "[1]", "value": 0},
      {"measurement": "Cough, Grade 4, No. of patients", "setting": "[1]", "value": 0},
      {"measurement": "Decreased appetite, Any Grade, % of patients", "setting": "[1]", "value": "(37.8) %"},
      {"measurement": "Decreased appetite, Any Grade, No. of patients", "setting": "[1]", "value": 17},
      {"measurement": "Decreased appetite, Grade 3, No. of patients", "setting": "[1]", "value": 0},
      {"measurement": "Decreased appetite, Grade 4, No. of patients", "setting": "[1]", "value": 0},
      {"measurement": "Diarrhea, Any Grade, % of patients", "setting": "[1]", "value": "(68.9) %"},
      {"measurement": "Diarrhea, Any Grade, No. of patients", "setting": "[1]", "value": 31},
      {"measurement": "Diarrhea, Grade 3, No. of patients", "setting": "[1]", "value": 4},
      {"measurement": "Diarrhea, Grade 4, No. of patients", "setting": "[1]", "value": 0},
      {"measurement": "Dizziness, Any Grade, % of patients", "setting": "[1]", "value": "(22.2) %"},
      {"measurement": "Dizziness, Any Grade, No. of patients", "setting": "[1]", "value": 10},
      {"measurement": "Dizziness, Grade 3, No. of patients", "setting": "[1]", "value": 0},
      {"measurement": "Dizziness, Grade 4, No. of patients", "setting": "[1]", "value": 0},
      {"measurement": "Fatigue, Any Grade, % of patients", "setting": "[1]", "value": "(57.8) %"},
      {"measurement": "Fatigue, Any Grade, No. of patients", "setting": "[1]", "value": 26},
      {"measurement": "Fatigue, Grade 3, % of patients", "setting": "[1]", "value": "(8.9) %"},
      {"measurement": "Fatigue, Grade 3, No. of patients", "setting": "[1]", "value": 4},
      {"measurement": "Fatigue, Grade 4, No. of patients", "setting": "[1]", "value": 0},
      {"measurement": "Febrile neutropenia, Any Grade, % of patients", "setting": "[1]", "value": "(6.7) %"},
      {"measurement": "Febrile neutropenia, Any Grade, No. of patients", "setting": "[1]", "value": 3},
      {"measurement": "Febrile neutropenia, Grade 3, % of patients", "setting": "[1]", "value": "(6.7) %"},
      {"measurement": "Febrile neutropenia, Grade 3, No. of patients", "setting": "[1]", "value": 3},
      {"measurement": "Febrile neutropenia, Grade 4, No. of patients", "setting": "[1]", "value": 0},
      {"measurement": "Hypophosphatemia, Any Grade, % of patients", "setting": "[1]", "value": "(20.0) %"},
      {"measurement": "Hypophosphatemia, Any Grade, No. of patients", "setting": "[1]", "value": 9},
      {"measurement": "Hypophosphatemia, Grade 3, % of patients", "setting": "[1]", "value": "(11.1) %"},
      {"measurement": "Hypophosphatemia, Grade 3, No. of patients", "setting": "[1]", "value": 5},
      {"measurement": "Hypophosphatemia, Grade 4, No. of patients", "setting": "[1]", "value": 0},
      {"measurement": "Nausea, Any Grade, % of patients", "setting": "[1]", "value": "(66.7) %"},
      {"measurement": "Nausea, Any Grade, No. of patients", "setting": "[1]", "value": 30},
      {"measurement": "Nausea, Grade 3, % of patients", "setting": "[1]", "value": "(2.2) %"},
      {"measurement": "Nausea, Grade 3, No. of patients", "setting": "[1]", "value": 1},
      {"measurement": "Nausea, Grade 4, No. of patients", "setting": "[1]", "value": 0},
      {"measurement": "Neutropenia (incl. neutrophil count decreased), Any Grade, % of patients", "setting": "[1]", "value": "(51.1) %"},
      {"measurement": "Neutropenia (incl. neutrophil count decreased), Any Grade, No. of patients", "setting": "[1]", "value": 23},
      {"measurement": "Neutropenia, Grade 3, % of patients", "setting": "[1]", "value": "(22.2) %"},
      {"measurement": "Neutropenia, Grade 3, No. of patients", "setting": "[1]", "value": 10},
      {"measurement": "Neutropenia, Grade 4, % of patients", "setting": "[1]", "value": 15.6, "unit": "%"},
      {"measurement": "Neutropenia, Grade 4, No. of patients", "setting": "[1]", "value": 7},
      {"measurement": "Pyrexia, Any Grade, % of patients", "setting": "[1]", "value": "(24.4) %"},
      {"measurement": "Pyrexia, Any Grade, No. of patients", "setting": "[1]", "value": 11},
      {"measurement": "Pyrexia, Grade 3, No. of patients", "setting": "[1]", "value": 0},
      {"measurement": "Pyrexia, Grade 4, No. of patients", "setting": "[1]", "value": 0},
      {"measurement": "Rash, Any Grade, % of patients", "setting": "[1]", "value": "(22.2) %"},
      {"measurement": "Rash, Any Grade, No. of patients", "setting": "[1]", "value": 10},
      {"measurement": "Rash, Grade 3, No. of patients", "setting": "[1]", "value": 0},
      {"measurement": "Rash, Grade 4, No. of patients", "setting": "[1]", "value": 0},
      {"measurement": "Vomiting, Any Grade, % of patients", "setting": "[1]", "value": "(31.1) %"},
      {"measurement": "Vomiting, Any Grade, No. of patients", "setting": "[1]", "value": 14},
      {"measurement": "Vomiting, Grade 3, % of patients", "setting": "[1]", "value": "(2.2) %"},
      {"measurement": "Vomiting, Grade 3, No. of patients", "setting": "[1]", "value": 1},
      {"measurement": "Vomiting, Grade 4, No. of patients", "setting": "[1]", "value": 0},
      {"measurement": "AEs leading to death or treatment-related deaths", "setting": "[2]", "value": "No AEs leading to death or treatment-related deaths were reported"},
      {"measurement": "Peripheral neuropathy or cardiovascular AEs of grade 3 or higher", "setting": "[2]", "value": "No cases"}
    ]}
  ]
}
